Consider four molecules from article PMC3789972, “Human Mitochondrial Chaperone (mtHSP70) and Cysteine Desulfurase (NFS1) Bind Preferentially to the Disordered Conformation, Whereas Co-chaperone (HSC20) Binds to the Structured Conformation of the Iron-Sulfur Cluster Scaffold Protein (ISCU)*” (The Journal of Biological Chemistry, 2013).

Experiment [1] deals with human mitochondrial DnaK-type chaperone mtHSP70, mature form (human) (UniProt P38646).
For experiment [2], the target named is human ISCU(N90A), mature form (human). The experiment can be described thus: NMR titration; 1H,15N TROSY-HSQC of 0.5 mM U-15N-ISCU or U-15N-ISCU(N90A), aliquots of 0.4 mM unlabeled HSC20 added up to equimolar; TKDM buffer, 25 °C; %S from the Trp-76 cross-peaks and chemical shift perturbations.
Experiment [3] has as its target human iron-sulfur cluster scaffold protein ISCU, wild type, mature form (human) (UniProt Q9H1K1). Described as above.
The target in experiment [4] is human ISCU(N90A), mature form (human). In words: NMR titration; 1H,15N HSQC / TROSY-HSQC of 0.5 mM U-15N-ISCU or variant, aliquots of 0.5 mM unlabeled mtHSP70 added up to equimolar; TKDM buffer (50 mM Tris-HCl pH 7.5, 150 mM KCl, 5 mM DTT, 10 mM MgCl2), 25 °C; %S from the Trp-76 cross-peaks.
For experiment [5], the target named is human ISCU(H105A), mature form (human). Described as above.
Experiment [6] addresses human mitochondrial DnaK-type chaperone mtHSP70, mature form (human, UniProt P38646 47-679). The experiment can be described thus: cell-based or functional assay.

Chain of human mitochondrial DnaK-type chaperone mtHSP70, mature form (human) (P38646 47-679): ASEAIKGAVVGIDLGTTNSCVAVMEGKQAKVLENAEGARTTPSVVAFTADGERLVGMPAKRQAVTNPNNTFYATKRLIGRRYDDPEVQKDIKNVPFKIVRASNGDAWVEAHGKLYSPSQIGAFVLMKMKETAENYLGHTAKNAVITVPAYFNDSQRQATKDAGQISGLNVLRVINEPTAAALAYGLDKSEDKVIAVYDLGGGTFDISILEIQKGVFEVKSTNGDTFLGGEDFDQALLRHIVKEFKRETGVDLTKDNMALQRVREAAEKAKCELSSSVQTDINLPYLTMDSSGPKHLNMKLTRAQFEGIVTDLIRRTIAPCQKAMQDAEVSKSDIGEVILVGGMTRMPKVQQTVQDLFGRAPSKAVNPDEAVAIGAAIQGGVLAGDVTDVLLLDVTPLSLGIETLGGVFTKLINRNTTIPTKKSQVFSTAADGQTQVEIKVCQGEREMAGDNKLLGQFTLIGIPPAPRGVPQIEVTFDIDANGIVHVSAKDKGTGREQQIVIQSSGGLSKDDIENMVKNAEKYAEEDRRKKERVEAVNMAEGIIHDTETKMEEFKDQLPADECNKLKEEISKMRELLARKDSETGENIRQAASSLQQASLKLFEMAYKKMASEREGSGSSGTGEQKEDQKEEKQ
Chain of human mitochondrial DnaK-type chaperone mtHSP70, mature form (human, UniProt P38646 47-679) (P38646 47-679): as above

“human ISCU(N90A), mature form (natural protein)”: in experiment [1], the ATPase activity of 1 μM mtHSP70: concentration of ISCU(N90A) required for half-maximal stimulation in the presence of 5 μM HSC20, double-reciprocal plot worked out at 3.5 µM; the ATPase activity of 1 μM mtHSP70: maximal stimulation by ISCU(N90A) in the presence of 5 μM HSC20, double-reciprocal plot turned out to be 8 fold; the ATPase activity of 1 μM mtHSP70 as a function of added ISCU(N90A) up to 24 μM in the presence of 5 μM HSC20: increase over basal activity was determined as 7 fold.
As for “human mitochondrial DnaJ-type co-chaperone HSC20, mature form (natural protein)”, in experiment [2], the %S of ISCU(N90A) after adding 1 eq of HSC20 stood at 99%. The %S of ISCU after adding equimolar HSC20 in experiment [3] was determined as 31%.
Turning to “human mitochondrial DnaK-type chaperone mtHSP70, mature form (from UniProt P38646 47-679) (natural protein)”, the %S of ISCU(N90A) at mole fraction 1.0 of added mtHSP70 in experiment [4] stood at 83%. The same molecule yielded a %S of ISCU(H105A) at mole fraction 1.0 of added mtHSP70 in experiment [5] of 0.54%.

B1: human iron-sulfur cluster scaffold protein ISCU, wild type, mature form (natural protein, UniProt Q9H1K1 35-167, looked up)
chain: YHKKVVDHYENPRNVGSLDKTSKNVGTGLVGAPACGDVMKLQIQVDEKGKIVDARFKTFGCGSAIASSSLATEWVKGKTVEEALTIKNTDIAKELCLPPVKLHCSMLAEDAIKAALADYKLKQEPKKGEAEKK
As for B1, in experiment [6], the “ATPase activity of 1 μM mtHSP70: increase over basal activity with 15 μM ISCU and 4 μM HSC20” value was approximately 15 fold; the “ATPase activity of 1 μM mtHSP70: maximal stimulation upon adding ISCU in the presence of 5 μM HSC20, double-reciprocal plot” value was approximately 17 fold.
